The labels stand for the following.
B1: CD2-associated protein, residues 271 to 331; numbered along this chain, Q9Y5K6 (parent)
chain: KEYCRTLFAYEGTNEDELTFKEGEIIHLISKETGEAGWWRGELNGKEGVFPDNFAVQINEL

± gives the uncertainty stated by the source.

The series covers variants of B1. Description: abundance fitness (aPCA) (normalised: wild type 0, dead -1); higher = more abundant; growth selection in yeast, the domain comes from the species named. The following applies: Homo sapiens.
In the case of KEYCRTLFAYEGTNEDELTFKENEIIHLISKETGEAGWWRGELNGKEGVFPDNFAVQINEL [G23N], the abundance fitness was -0.106 ± 0.12. On to KEYCRTLFAYEGTNEDELTFKEQEIIHLISKETGEAGWWRGELNGKEGVFPDNFAVQINEL [G23Q], for which the abundance fitness was -0.726 ± 0.15. Consider KEYCRTLFAYEGTNEDELTFKEWEIIHLISKETGEAGWWRGELNGKEGVFPDNFAVQINEL [G23W], for which the abundance fitness is -0.532 ± 0.088. Next, KEYCRTLFAYEGTNEDELTFKEREIIHLISKETGEAGWWRGELNGKEGVFPDNFAVQINEL [G23R]: -0.57 ± 0.063; KEYCRTLFAYEGTNEDELTFKELEIIHLISKETGEAGWWRGELNGKEGVFPDNFAVQINEL [G23L]: -0.941 ± 0.12; KEYCRTLFAYEGTNEDELTFKEAEIIHLISKETGEAGWWRGELNGKEGVFPDNFAVQINEL [G23A]: -0.727 ± 0.13. For the variant KEYCRTLFAYEGTNEDELTFKEIEIIHLISKETGEAGWWRGELNGKEGVFPDNFAVQINEL [G23I], the abundance fitness is -0.613 ± 0.16. Consider KEYCRTLFAYEGTNEDELTFKESEIIHLISKETGEAGWWRGELNGKEGVFPDNFAVQINEL [G23S], for which the abundance fitness is -0.465 ± 0.082. With KEYCRTLFAYEGTNEDELTFKEHEIIHLISKETGEAGWWRGELNGKEGVFPDNFAVQINEL [G23H] the figure was -0.644 ± 0.16. With KEYCRTLFAYEGTNEDELTFKEEEIIHLISKETGEAGWWRGELNGKEGVFPDNFAVQINEL [G23E] the figure was -0.564 ± 0.17; with KEYCRTLFAYEGTNEDELTFKEPEIIHLISKETGEAGWWRGELNGKEGVFPDNFAVQINEL [G23P], -0.892 ± 0.2; with KEYCRTLFAYEGTNEDELTFKEYEIIHLISKETGEAGWWRGELNGKEGVFPDNFAVQINEL [G23Y], -1.09 ± 0.33. With KEYCRTLFAYEGTNEDELTFKEMEIIHLISKETGEAGWWRGELNGKEGVFPDNFAVQINEL [G23M] the figure was -0.958 ± 0.23; with KEYCRTLFAYEGTNEDELTFKETEIIHLISKETGEAGWWRGELNGKEGVFPDNFAVQINEL [G23T], -0.424 ± 0.14; with KEYCRTLFAYEGTNEDELTFKECEIIHLISKETGEAGWWRGELNGKEGVFPDNFAVQINEL [G23C], -0.45 ± 0.093. Turning to KEYCRTLFAYEGTNEDELTFKEVEIIHLISKETGEAGWWRGELNGKEGVFPDNFAVQINEL [G23V], the abundance fitness is -1.13 ± 0.2. With KEYCRTLFAYEGTNEDELTFKEKEIIHLISKETGEAGWWRGELNGKEGVFPDNFAVQINEL [G23K] the figure was -0.646 ± 0.15; with KEYCRTLFAYEGTNEDELTFKEFEIIHLISKETGEAGWWRGELNGKEGVFPDNFAVQINEL [G23F], -0.863 ± 0.39; with KEYCRTLFAYEGTNEDELTFKEGRIIHLISKETGEAGWWRGELNGKEGVFPDNFAVQINEL [E24R], -0.782 ± 0.052. As to KEYCRTLFAYEGTNEDELTFKEGTIIHLISKETGEAGWWRGELNGKEGVFPDNFAVQINEL [E24T], the abundance fitness is -0.286 ± 0.069. In the case of KEYCRTLFAYEGTNEDELTFKEGAIIHLISKETGEAGWWRGELNGKEGVFPDNFAVQINEL [E24A], the abundance fitness was -0.312 ± 0.057. As for KEYCRTLFAYEGTNEDELTFKEGDIIHLISKETGEAGWWRGELNGKEGVFPDNFAVQINEL [E24D], the abundance fitness was -0.036 ± 0.079. With KEYCRTLFAYEGTNEDELTFKEGPIIHLISKETGEAGWWRGELNGKEGVFPDNFAVQINEL [E24P] the figure was -0.694 ± 0.12; with KEYCRTLFAYEGTNEDELTFKEGNIIHLISKETGEAGWWRGELNGKEGVFPDNFAVQINEL [E24N], -0.824 ± 0.13; with KEYCRTLFAYEGTNEDELTFKEGYIIHLISKETGEAGWWRGELNGKEGVFPDNFAVQINEL [E24Y], -0.77 ± 0.14.

As for KEYCRTLFAYEGTNEDELTFKEGSIIHLISKETGEAGWWRGELNGKEGVFPDNFAVQINEL [E24S], the abundance fitness was -0.461 ± 0.055. With KEYCRTLFAYEGTNEDELTFKEGVIIHLISKETGEAGWWRGELNGKEGVFPDNFAVQINEL [E24V] the figure was -0.318 ± 0.046; with KEYCRTLFAYEGTNEDELTFKEGWIIHLISKETGEAGWWRGELNGKEGVFPDNFAVQINEL [E24W], -0.827 ± 0.081.

For the variant KEYCRTLFAYEGTNEDELTFKEGMIIHLISKETGEAGWWRGELNGKEGVFPDNFAVQINEL [E24M], the abundance fitness was -0.223 ± 0.052. With KEYCRTLFAYEGTNEDELTFKEGLIIHLISKETGEAGWWRGELNGKEGVFPDNFAVQINEL [E24L] the figure was -0.599 ± 0.045.

In the case of KEYCRTLFAYEGTNEDELTFKEGQIIHLISKETGEAGWWRGELNGKEGVFPDNFAVQINEL [E24Q], the abundance fitness was -0.14 ± 0.062. With KEYCRTLFAYEGTNEDELTFKEGKIIHLISKETGEAGWWRGELNGKEGVFPDNFAVQINEL [E24K] the figure was -0.697 ± 0.093. With KEYCRTLFAYEGTNEDELTFKEGFIIHLISKETGEAGWWRGELNGKEGVFPDNFAVQINEL [E24F] the figure was -0.993 ± 0.21; with KEYCRTLFAYEGTNEDELTFKEGEKIHLISKETGEAGWWRGELNGKEGVFPDNFAVQINEL [I25K], -0.35 ± 0.1; with KEYCRTLFAYEGTNEDELTFKEGECIHLISKETGEAGWWRGELNGKEGVFPDNFAVQINEL [I25C], -0.485 ± 0.1. Turning to KEYCRTLFAYEGTNEDELTFKEGEFIHLISKETGEAGWWRGELNGKEGVFPDNFAVQINEL [I25F], the abundance fitness is -0.302 ± 0.076.

As to KEYCRTLFAYEGTNEDELTFKEGEMIHLISKETGEAGWWRGELNGKEGVFPDNFAVQINEL [I25M], the abundance fitness is -0.064 ± 0.063. Next, KEYCRTLFAYEGTNEDELTFKEGEQIHLISKETGEAGWWRGELNGKEGVFPDNFAVQINEL [I25Q]: -0.234 ± 0.087; KEYCRTLFAYEGTNEDELTFKEGEHIHLISKETGEAGWWRGELNGKEGVFPDNFAVQINEL [I25H]: -0.448 ± 0.16. KEYCRTLFAYEGTNEDELTFKEGEGIHLISKETGEAGWWRGELNGKEGVFPDNFAVQINEL [I25G]: the abundance fitness is -0.602 ± 0.07. Next, KEYCRTLFAYEGTNEDELTFKEGENIHLISKETGEAGWWRGELNGKEGVFPDNFAVQINEL [I25N]: -0.451 ± 0.097; KEYCRTLFAYEGTNEDELTFKEGEEIHLISKETGEAGWWRGELNGKEGVFPDNFAVQINEL [I25E]: -0.471 ± 0.084; KEYCRTLFAYEGTNEDELTFKEGEPIHLISKETGEAGWWRGELNGKEGVFPDNFAVQINEL [I25P]: -0.794 ± 0.19. Next, KEYCRTLFAYEGTNEDELTFKEGEDIHLISKETGEAGWWRGELNGKEGVFPDNFAVQINEL [I25D]: -0.285 ± 0.11.

The values are drawn from the Human Domainome abundance scans (Beltran et al. 2025).
